Molecular target: T1, N-terminal domain of S. cerevisiae methionyl-tRNA synthetase (residues 1-160) (S. cerevisiae, UniProt P00958 1-160)
T1 sequence (looked up): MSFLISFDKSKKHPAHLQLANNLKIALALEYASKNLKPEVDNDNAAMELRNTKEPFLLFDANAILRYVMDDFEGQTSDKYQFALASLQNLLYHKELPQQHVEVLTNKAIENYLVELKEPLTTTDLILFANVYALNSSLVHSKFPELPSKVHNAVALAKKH
Assay: SEC

stoichiometry N: 1
B1: N-terminal domain of S. cerevisiae Arc1p (residues 1-122) (domain or fragment, UniProt P46672 1-122, looked up)
chain: MSDLVTKFESLIISKYPVSFTKEQSAQAAQWESVLKSGQIQPHLDQLNLVLRDNTFIVSTLYPTSTDVHVFEVALPLIKDLVASSKDVKSTYTTYRHILRWIDYMQNLLEVSSTDKLEINHD

From publication PMC1557820 (Nucleic Acids Research, 2006)
